These results are taken from paper doi:10.1101/2025.03.12.642038, “Structural, biophysical and biological analysis and characterisation of IRF4 DNA-binding domain mutations associated with multiple myeloma”.

Data set [1] has as its target T1, IRF4 DBD T95R (Homo sapiens, UniProt Q15306 20-132, T95R).
T1 sequence: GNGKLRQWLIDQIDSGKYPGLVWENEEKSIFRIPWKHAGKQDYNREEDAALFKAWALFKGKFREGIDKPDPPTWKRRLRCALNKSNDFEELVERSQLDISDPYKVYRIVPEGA
Kind of data set: SPR steady state; FP: PBS + 0.05% Tween20, 5 nM DNA, 1 h, room temperature; SPR: Biacore S200, SA chip, protein 0.1-4500 nM, running buffer not given in material; errors are SD. Conditions: protein: recombinant; tags: N-terminal His8-linker-His8-TEV, cleaved; label: 3' biotin; hairpin, TTTT loop. For orientation: SPR reads the build-up and loss of mass on a sensor chip optically.

The next data set deals with T2, IRF4 DBD K59R (Homo sapiens, UniProt Q15306 20-132, K59R).
T2 sequence: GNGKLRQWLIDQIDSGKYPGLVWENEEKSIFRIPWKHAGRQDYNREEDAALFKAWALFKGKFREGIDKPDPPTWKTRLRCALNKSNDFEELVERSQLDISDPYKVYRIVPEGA
The data set is described as above. Particulars: protein: recombinant; tags: N-terminal His8-linker-His8-TEV, cleaved; label: 3' biotin; hairpin, TTTT loop.

Another data set concerns the target T3, IRF4 DBD S114R (Homo sapiens, UniProt Q15306 20-132, S114R).
T3 sequence: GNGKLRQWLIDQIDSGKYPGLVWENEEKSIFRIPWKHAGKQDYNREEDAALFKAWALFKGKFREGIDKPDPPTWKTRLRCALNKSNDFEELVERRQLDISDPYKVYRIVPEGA
The data set is described as above. Particulars: protein: recombinant; tags: N-terminal His8-linker-His8-TEV, cleaved; label: 3' biotin; hairpin, TTTT loop.

For data set [2], the target named is T4, IRF4 DBD C99S (Homo sapiens, UniProt Q15306 20-132, C99S).
T4 sequence: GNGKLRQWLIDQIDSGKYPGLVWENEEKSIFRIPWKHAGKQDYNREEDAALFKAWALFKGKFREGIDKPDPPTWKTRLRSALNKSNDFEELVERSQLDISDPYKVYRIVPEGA
Described as above. Conditions: protein: recombinant; label: 3' biotin; hairpin, TTTT loop.

The next data set addresses T5, IRF4 DBD D117A (Homo sapiens, UniProt Q15306 20-132, D117A).
T5 sequence: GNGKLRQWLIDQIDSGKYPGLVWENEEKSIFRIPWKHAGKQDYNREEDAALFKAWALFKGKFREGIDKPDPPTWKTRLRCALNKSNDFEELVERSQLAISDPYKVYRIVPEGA
The data set is described as above. Particulars: protein: recombinant; tags: N-terminal His8-linker-His8-TEV, cleaved; label: 3' biotin; hairpin, TTTT loop.

The target in another data set is T6, IRF4 DBD L70V (Homo sapiens, UniProt Q15306 20-132, L70V).
T6 sequence: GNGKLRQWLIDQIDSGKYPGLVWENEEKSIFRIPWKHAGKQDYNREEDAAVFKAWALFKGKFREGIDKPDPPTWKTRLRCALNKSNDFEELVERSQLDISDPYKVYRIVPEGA
Kind of data set: SPR two-state kinetic; FP: PBS + 0.05% Tween20, 5 nM DNA, 1 h, room temperature; SPR: Biacore S200, SA chip, protein 0.1-4500 nM, running buffer not given in material; errors are SD. Conditions: protein: recombinant; tags: N-terminal His8-linker-His8-TEV, cleaved; label: 3' biotin; hairpin, TTTT loop.

The target of data set [3] is T1, IRF4 DBD T95R. The description is as above. Conditions: protein: recombinant; tags: N-terminal His8-linker-His8-TEV, cleaved; label: 3' biotin; hairpin, TTTT loop.
The next data set deals with T7, IRF4 DBD D117H (Homo sapiens, UniProt Q15306 20-132, D117H).
T7 sequence: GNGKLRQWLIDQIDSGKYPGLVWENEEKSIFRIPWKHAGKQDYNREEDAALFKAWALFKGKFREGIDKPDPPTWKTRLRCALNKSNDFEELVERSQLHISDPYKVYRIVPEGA
Described as above. Conditions: protein: recombinant; tags: N-terminal His8-linker-His8-TEV, cleaved; label: 3' biotin; hairpin, TTTT loop.

Data set [4] addresses T4, IRF4 DBD C99S. Described as above. Conditions: protein: recombinant; label: 3' biotin; hairpin, TTTT loop.
Another data set addresses T8, IRF4 DBD C99A (Homo sapiens, UniProt Q15306 20-132, C99A).
T8 sequence: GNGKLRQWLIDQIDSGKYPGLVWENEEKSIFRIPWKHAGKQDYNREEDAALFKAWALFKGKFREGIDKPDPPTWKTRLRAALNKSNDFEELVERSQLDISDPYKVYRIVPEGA
Described as above. Particulars: protein: recombinant; tags: N-terminal His8-linker-His8-TEV, cleaved; label: 3' biotin; hairpin, TTTT loop.

In a further data set the target is T9, IRF4 DBD T95K (Homo sapiens, UniProt Q15306 20-132, T95K).
T9 sequence: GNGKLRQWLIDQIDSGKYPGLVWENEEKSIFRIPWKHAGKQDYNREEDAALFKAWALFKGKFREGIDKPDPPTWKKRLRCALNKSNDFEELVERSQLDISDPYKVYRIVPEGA
The data set is described as above. Conditions: protein: recombinant; tags: N-terminal His8-linker-His8-TEV, cleaved; label: 3' biotin; hairpin, TTTT loop.

On to CTTGGTTTCACTTCCTGCGTTTTCGCAGGAAGTGAAACCAAG (structured_DNA) [IRE hairpin (biotin)], for which the Kd (usually the equilibrium constant for the complex coming apart) with IRF4 DBD T95R [1] is 449 ± 49 nM; in the data set with IRF4 DBD K59R it was 275 ± 93 nM; with IRF4 DBD S114R, 213 ± 94 nM; in the data set with IRF4 DBD C99S [2] it was 338 ± 173 nM; with IRF4 DBD D117A, 301 ± 87 nM; with IRF4 DBD L70V, 121 ± 111 nM. For the same molecule, the Kd with IRF4 DBD T95R [3] was 481 ± 149 nM; in the data set with IRF4 DBD D117H it was 204 ± 131 nM; in the data set with IRF4 DBD C99S [4], 139 ± 43 nM; with IRF4 DBD C99A, 61 ± 29 nM; with IRF4 DBD T95K, 913 ± 147 nM.
